Measured values from patent publication US7666414B2, “Methods for treating prostate cancer using modified antibodies to prostate-specific membrane antigen” (Cornell Research Foundation, Inc., priority 2001, dated 2010).
Like-named read-outs stand apart in the source and are kept apart here.

What was measured:
[1] = system: PSMA-positive 22RV1 xenografts; test: Efficacy in castrate or intact scid mice bearing androgen-independent 22RV1 xenograft; assay type: in vivo, C.B-17 scid mice; conditions: 12.93 mg/kg
Procedure: Prostate tumors can be broadly classified as either androgen-dependent or androgen-independent. […] The 22RV1 cell line was originally developed as androgen-independent and can be grown as a xenograft in C.B-17 scid mice that have been left either intact or castrated. […] C.B-17 scid mice bearing CWR22 xenografts approximately 200 mm^3 in size received IV injections (200 μL constant volume) of the test articles according to the dosage and schedule shown in the Table 24.

CD-1 mice = system: CD-1 mice
Source text: Use of both mice and cynomolgus monkeys for nonclinical testing allowed comparison of exposure and toxicity across species on the basis of body surface area (mg/m^2), and thus aided in selecting the SSD for the proposed Phase 1 clinical trial.

[2] = male mice; for AUC, analyte Total deJ591 / AUC, analyte deJ591-DM1: 0-336 hours
PSMA-negative cells = conditions: read-out: Non-specific in vitro cytotoxicity towards PSMA-negative cells, IC50
[3] = Pharmacokinetics of deJ591 and deJ591-DM1 in cynomolgus monkeys
[4] = MLN2704 300 mg/m^2 (100 mg/kg), single IV, CD-1 mice
[5] = single IV deJ591-DM1 10 mg/kg (30 mg/m^2)
[6] = single IV deJ591-DM1 30 mg/kg (90 mg/m^2)
[7] = single IV deJ591-DM1 90 mg/kg (270 mg/m^2)
[8] = study CTBR 57355, deJ591-DM1 6 mg/kg (72 mg/m^2)
[9] = study CTBR 57355, deJ591-DM1 10 mg/kg (120 mg/m^2)
[10] = study CTBR 57355, deJ591-DM1 16 mg/kg ([…]^2)
[11] = study CTBR 57355, deJ591-DM1 30 mg/kg (360 mg/m^2)
[12] = study CTBR 57355, mean over dosages
[13] = study KLA W-171, deJ591-DM1 6 mg/kg (72 mg/m^2)

In the case of “deJ591-DM1: deJ591 conjugated via SPP disulfide linker to the maytansinoid DM1, DM1/antibody ratio about 3.5”, the “Tumor Growth Delay” value ([1]; Castrate Mice, q3dX5) is reported as 26.3 days, the “Tumor Growth Delay” value ([1]; Intact Mice, q3dX5) is reported as 13.1 days and the “Tumor Growth Delay” value ([1]; Intact Mice, q7dX5) is reported as 7.8 days. For the same substance, the “Degree of Toxicity and Major Target Organs” value (“Degree” for short) (CD-1 mice; 30 mg/m^2 (10 mg/kg)) was “Mild toxicity to testes”, the “Degree” value (CD-1 mice; 48 mg/m^2 (16 mg/kg)) was “Mild to moderate toxicity to reproductive” and the “Degree” value (CD-1 mice; 90 mg/m^2 (30 mg/kg)) was “Mild to moderate toxicity to reproductive,”. The “Degree” value (CD-1 mice; 300 mg/m^2 (100 mg/kg)) was “Moderate to severe toxicity to reproductive,”, the mortality (CD-1 mice; 480 mg/m^2 (160 mg/kg)) was 100% mortality attributed to severe and the “Degree” value (CD-1 mice; MLN2704 30 mg/m^2 (10 mg/kg), single IV, CD-1 mice) was “Mild toxicity to testes”. For the same substance, the “Degree” value (CD-1 mice; MLN2704 48 mg/m^2 (16 mg/kg), single IV, CD-1 mice) was “Mild to moderate toxicity to”, the “elevated AST and ALT values” (CD-1 mice; MLN2704 90 mg/m^2 (30 mg/kg), single IV, CD-1 mice) was “mitosis/necrosis of liver; slightly” and the “elevated AST and ALT values” (CD-1 mice; MLN2704 180 mg/m^2 (60 mg/kg), single IV, CD-1 mice) was “mitosis/necrosis of liver; moderately”. For the same substance, the “elevated AST and ALT values” (CD-1 mice; [4]) was “mitosis/necrosis of liver; markedly”, the mortality (CD-1 mice; [4]) was 30% mortality attributed to severe and the “Degree” value (CD-1 mice; MLN2704 300 mg/m^2 (100 mg/kg), single IV, CD-1 mice, survivors) was “toxicity. Moderate to severe toxicity to”. The mortality (CD-1 mice; MLN2704 480 mg/m^2 (160 mg/kg), single IV, CD-1 mice) was 100% mortality attributed to severe, the “Mouse LD10 (female)” value (CD-1 mice; calculated) was 95 mg/kg and the “Mouse LD10 (female), DM1-Equivalents received” value (CD-1 mice; calculated) was 5.13 mg/m^2. For the same substance, the “Mouse LD10 (male)” value (CD-1 mice; calculated) was 96 mg/kg, the “Mouse LD10 (male), DM1-Equivalents received” value (CD-1 mice; calculated) was 5.18 mg/m^2 and the lower testes weights (CD-1 mice; lowest tested dosage 30 mg/m^2) was 10%. The “Mouse LD100” value (CD-1 mice; mouse, in vivo) was 160 mg/kg, the “Mouse MTD” value (CD-1 mice; mouse, in vivo) was 60 mg/kg and the “Mouse STD, DM1-Equivalents received” value (CD-1 mice; mouse, in vivo) was 5.40 mg/m^2. The LD100 (CD-1 mice; single IV, CD-1 mice) was 160 mg/kg, the MTD (CD-1 mice; single IV, CD-1 mice) was 60 mg/kg and the “LD10 (females)” value (CD-1 mice; single IV, CD-1 mice, females, calculated) was 95 mg/kg. For the same substance, the “LD10 (males)” value (CD-1 mice; single IV, CD-1 mice, males, calculated) was 96 mg/kg, the “Tmax, analyte Total deJ591” value [2, 5] was 30 min and the “Tmax, analyte deJ591-DM1” value [2, 5] was 30 min. The “AUC, analyte Total deJ591” value [2, 5] was 8920 µg·h/mL, the “AUC, analyte deJ591-DM1” value [2, 5] was 3260 µg·h/mL and the “Tmax, analyte Total deJ591” value [2, 6] was 4.8 min. The “Tmax, analyte deJ591-DM1” value [2, 6] was 4.8 min, the “AUC, analyte Total deJ591” value [2, 6] was 21000 µg·h/mL and the “AUC, analyte deJ591-DM1” value [2, 6] was 5960 µg·h/mL. For the same substance, the “Tmax, analyte Total deJ591” value [2, 7] was 4.8 min, the “Tmax, analyte deJ591-DM1” value [2, 7] was 4.8 min and the “AUC, analyte Total deJ591” value [2, 7] was 62300 µg·h/mL. The “AUC, analyte deJ591-DM1” value [2, 7] was 30600 µg·h/mL, the IC50 (PSMA-negative cells; listed as 1552-60S) was 13.6 nM and the IC50 (PSMA-negative cells; listed as N067020302) was 17.1 nM. For the same substance, the “Tmax, analyte Total deJ591” value [3, 8] was 60 min, the “Tmax, analyte deJ591-DM1” value [3, 8] was 48 min and the “AUC, analyte Total deJ591” value [3, 8] was 17200 µg·h/mL. For the same substance, the “AUC, analyte deJ591-DM1” value [3, 8] was 6720 µg·h/mL, the “Tmax, analyte deJ591-DM1” value [3, 9] was 36 min and the “t1/2, analyte Total deJ591” value [3, 9] was 200 h. For the same substance, the “AUC, analyte Total deJ591” value [3, 9] was 31700 µg·h/mL, the “AUC, analyte deJ591-DM1” value [3, 9] was 10600 µg·h/mL and the “Tmax, analyte Total deJ591” value [3, 10] was 54 min. For the same substance, the “Tmax, analyte deJ591-DM1” value [3, 10] was 48 min, the “AUC, analyte Total deJ591” value [3, 10] was 44400 µg·h/mL and the “AUC, analyte deJ591-DM1” value [3, 10] was 15600 µg·h/mL. For the same substance, the “Tmax, analyte deJ591-DM1” value [3, 11] was 48 min, the “AUC, analyte Total deJ591” value [3, 11] was 95000 µg·h/mL and the “AUC, analyte deJ591-DM1” value [3, 11] was 33500 µg·h/mL. For the same substance, the “Tmax, analyte Total deJ591” value [3, 12] was 54 min, the “Tmax, analyte deJ591-DM1” value [3, 12] was 42 min and the “Tmax, analyte Total deJ591” value [3, 13] was 300 min. The “Tmax, analyte deJ591-DM1” value [3, 13] was 60 min, the “AUC, analyte Total deJ591” value [3, 13] was 19900 µg·h/mL and the “AUC, analyte deJ591-DM1” value [3, 13] was 5020 µg·h/mL.
